# Patent US20260049134A1 (UNIVERSITY OF FLORIDA RESEARCH FOUNDATION, published 2026)
# B1: TH9-0022 (antibody, human IgG1, kappa, L234A L235A, V domains shown)
# VH: QSLEESGGRLVTPGTPLTLTCTVSGFSLSSYAMNWVRQAPGKGLEWIGIINSYGSTYYASWAKGRFTISKTSTTVDLKITSPTTEDTATYFCARVTYDSYGYGYAPYGMDLWGPGTLVTVSS
# VL: LVMTQTPSSTSNAVGGTVTIKCQASQSIGNVLAWYQQKPGQPPKLLIYAASTLASGVPSRVGGSRSGTEYTLTISGVQREDAATYYCLGSDSDSDIAFGGGTELEILR
# notes: also called TH9-022; negative control
# B2: HW-42 chimeric rabbit-human IgG1 LA/LA/PG (antibody, V domains shown)
# VH: QSVKESEGGLFKPADTLTLTCTVSGFSLSSNEISWVRQAPGEGLEYIGIIDTGGRAYYAVWARSRSTITRNTNLNTVTLKMTSLTAADTATYFCARGGVDTEWYAFSSWGPGTLVTVPS
# VL: SFVLTQPASVQVNLGQTVSLTCTADTLSRRYASWYQQKPGQAPVLLIFRDTSRPSGVPDRFSGSSSGDTATLTISGAQAGDEADYYCATSDGSGSNYQYVFGGGTQLTVTG
# notes: Fc-silenced (L234A/L235A/P329G) IgG1, lambda; Alexa Fluor 647-labeled in single-step flow cytometry; Cluster C-1
# B3: HW-70 chimeric rabbit-human IgG1 LA/LA/PG (antibody, V domains shown)
# VH: QSLEESGGRLVTPGTPLTLTCTVSGFSLSSNAMSWVRQAPGKGLEWIGTIDGYGYTYYASWAKGRFTVSKTSTTVDLKITSPTTEDTATYFCAREIYLGSNFWGPGTLVTISS
# VL: SFVLTQPASVQVNLGQTVSLTCTADTLSRRYASWYQQKPGQAPVLLIYRDTSRPSGVPDRFSGSSSGNTATLTISGAQAGDEADYYCATADGSGSSYQFVFGGGTQLTVTG
# notes: as for B2
# B4: HW-25 chimeric rabbit-human IgG1 LA/LA/PG (antibody, V domains shown)
# VH: QSLEESGGRLVTPGTPLTLTCTVSGFSLSSYAMGWVRQAPGKGLEWIGIIDSRGSTYYATWAKGRFTISKTSTTVDLKITSPTTEDTATYFCAREDSYYYDSFNLWGPGTLVTVSS
# VL: SFVLTQPASVQVNLGQTVSLTCTADTLSRRYASWYQQKPGQAPVLLIYRDTSRPSGVPDRFSGSSSGNTATLTISGAQAGDEADYYCATSDGSGSSYQCVFGGGTQLTVTG
# notes: as for B2
# B5: HW-1 chimeric rabbit-human IgG1 LA/LA/PG (antibody, V domains shown)
# VH: QSLEESGGGLFKPTDTLTLTCTASGFSLGSSYAISWVRQAPGKELEWIGTIDSGRAYYARWAKSRSTITRNTNENTVTLKMTSLTAADTATYFCARDLIPTYSQDIWGPGTLVTISS
# VL: SFVLTQPASVQVNLGQTVSLTCTADTLSRRYASWYQQKPGQAPVLLIYRDTSRPSGVPDRFSGSSSGNTATLTISGAQAGDEADYYCATSDGSGNSYQYVFGGGTQLTVTS
# notes: Fc-silenced (L234A/L235A/P329G) IgG1, lambda; Alexa Fluor 647-labeled in single-step flow cytometry; Prototype of cluster C-1
# B6: HW-17 chimeric rabbit-human IgG1 LA/LA/PG (antibody, V domains shown)
# VH: QSLGESRGRLVTPDETLTLTCTVSGIDLSSNAMSWVRQAPGEGLEWIGTINTGGRAYYASWAKGRFTISRTSTTVDLKMTSLTTEDTATYFCARERYSDGRAYDIWGPGTLVTISS
# VL: SFVLTQPASVQVNLGQTVSLTCTADTLSRRYASWYQQKPGQAPVLLIYTDSNRPSGIPDRFSGSSSGNTATLTISGAQAGDEADYYCATDDGSGSIYQYVFGGGTQLTVTG
# notes: as for B2
# B7: HW-8 chimeric rabbit-human IgG1 LA/LA/PG (antibody, V domains shown)
# VH: QSLEESGGRLVTPGTPLTLTCTVSGFSLSSYAMSWVRQAPGKGLEWIGAISTGGSTTYASWAKGRFTISKTSSTTVDLKMTSLTTEDTATYFCVRHFRLWGPGTLVTISS
# VL: QVLTQTPSSVSAAVGGTVTIKCQASQSIGSALAWFQQKPGQRPKLLIYRASNLASGVPSRFKGSGSGTEFALTISGVQREDAATYYCLGGAAAVWAFGAGTNVEIKR
# notes: Fc-silenced (L234A/L235A/P329G) IgG1, kappa; Alexa Fluor 647-labeled in single-step flow cytometry; Cluster C-45
# B8: HW-28 chimeric rabbit-human IgG1 LA/LA/PG (antibody, V domains shown)
# VH: QKQLVESGGRLVTPGTPLTLTCTASGFSLSSNAMSWVRQAPGEGLQWIGTISSGGSTYYASWAKGRFTISKTSTTVTLKMTSLTTEDTATYFCARGADLHRLWGPGTLVTVSS
# VL: SFVLTQPASVQVNLGQTVSLTCTGKPLSRSFASWYQQKPGQAPVLVIYRDTSRPSGVPDRFSGSSSGNTATLTISGAQAGDEADYYCATSDGSGSSYQYVFGGGTQLTVTG
# notes: Fc-silenced (L234A/L235A/P329G) IgG1, lambda; Alexa Fluor 647-labeled in single-step flow cytometry; Cluster C-45
# B9: HW-56 chimeric rabbit-human IgG1 LA/LA/PG (antibody, V domains shown)
# VH: QSVKESEGGLFKPTDTLTLTCTASGFTVSTNAVTWVRQAPGNGLEYIGTIGRSGSAYFASWAKRRSTLTRDINLNTVTLKMTSLTAADTATYFCVRGSPGYRTAISIWGPGTLVTISS
# VL: AVMTQTPSSTSAAVEGTVTINCQASQSISNRLSWFQQKPGQPPKLLIYQASTLASGVPSRFKGSGSGTEFTLTISGVQREDAATYYCLGSYSSSDASFGGGTKLEIKR
# notes: as for B7
# B10: HW-81 chimeric rabbit-human IgG1 LA/LA/PG (antibody, V domains shown)
# VH: QKQLVESGGGLVTPGGTLTLTCTVSGFSLSSNGVSWVRQAPGKGLEYIGLIRSIGSTYYATWAKGRFTISKTSTTVDLKITSPTTEDTATYFCARGGYRNGFKLWGPGTLVTVSS
# VL: QPVLTQSPSVSAALGASAKLTCTLSSAHKTYYIEWYQQQHPGKAPRYLMQLQSDGSYTKGTGVPDRFSGSSSGADRYLIISSVQAEDEADYICGVIDSAVYVFGGGTQLTVTG
# notes: as for B8
# B11: HW-16 chimeric rabbit-human IgG1 LA/LA/PG (antibody, V domains shown)
# VH: QSLEESGGRLVTPGTPLTLTCTASGFSLSSYAMSWVRQAPGKGLEWIGTMPTGGGTYYASWAKGRFTISKTSTTVDLQITSPTTEDTATYFCAKHWNIWGPGTLVTISS
# VL: DIVLTQTPSSTSTAVGDTVTINCRASQSIGRNLAWFQQKPGQPPKLLIYRASNLASGVPSRFKGSGSRTQFTLTISGVQREDAATYYCLGSYSSSDTAFGGGTELEILR
# notes: as for B7
# B12: HW-45 chimeric rabbit-human IgG1 LA/LA/PG (antibody, V domains shown)
# VH: QKQLVESGGRLVTPGTPLTLTCTVSGFSLSSYAMGWFRQAPGKGLEWIGIINSYGSTYYASWAKGRFTISKTSTTVDLKITSPTTEDTATYFCGRRIGSARFDPWGPGTLVTVSS
# VL: SFVLTQPASVQVNLGQTVSLTCTADTLSRSYASWYQQKPGQAPVLLIYRDTRRPSGVPDRFSGSSSGNTATLTISGAQAGDEADYYCATSDGSGSSYRLVFGGGTQLTVTG
# notes: Fc-silenced (L234A/L235A/P329G) IgG1, lambda; Alexa Fluor 647-labeled in single-step flow cytometry; Prototype of cluster C-45
# Columns and labels:
# [1] = molecular target: T1, GARS-His (Sino Biological) (human, UniProt P41250 37-739, limits assumed); experiment: ELISA on coated GARS-His, 150 ng IgG1; None 0.099
# T1 construct: Bought; also called GARS1; glycyl-tRNA synthetase; not shown: His tag of the bought protein
# T1 sequence: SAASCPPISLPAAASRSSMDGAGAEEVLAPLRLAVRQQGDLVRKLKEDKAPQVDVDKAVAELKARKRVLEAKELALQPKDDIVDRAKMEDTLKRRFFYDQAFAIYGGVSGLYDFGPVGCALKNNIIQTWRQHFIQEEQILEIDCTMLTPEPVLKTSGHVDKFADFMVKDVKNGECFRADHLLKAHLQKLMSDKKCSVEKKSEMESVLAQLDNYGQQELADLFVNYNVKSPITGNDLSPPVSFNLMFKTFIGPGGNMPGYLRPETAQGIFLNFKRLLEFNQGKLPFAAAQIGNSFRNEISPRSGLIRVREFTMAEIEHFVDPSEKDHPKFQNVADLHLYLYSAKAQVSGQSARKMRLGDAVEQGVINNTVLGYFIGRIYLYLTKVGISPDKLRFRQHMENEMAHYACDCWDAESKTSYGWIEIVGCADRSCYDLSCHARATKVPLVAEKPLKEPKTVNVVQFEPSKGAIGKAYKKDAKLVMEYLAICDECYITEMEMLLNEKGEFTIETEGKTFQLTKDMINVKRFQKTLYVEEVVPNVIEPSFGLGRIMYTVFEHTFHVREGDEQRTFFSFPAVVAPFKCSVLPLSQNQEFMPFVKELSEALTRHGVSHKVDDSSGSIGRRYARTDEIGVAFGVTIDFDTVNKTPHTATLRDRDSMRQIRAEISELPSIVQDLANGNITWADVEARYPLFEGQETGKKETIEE
# Method: (§1) Recombinant purified ECDs (50-150 ng) of each putative target protein were coated, incubated with 150 ng of the indicated primary antibody, and binding was detected using a peroxidase-conjugated anti-human Fab secondary antibody. Heatmap represents averages of technical triplicates. (8B) Target validation via siRNA knockdown. H929 cells were transfected with siRNA pools targeting the putative antibody targets ICAM1, CADM1, and PTPRG. Cells were then subjected to cognate IgG binding analysis via flow cytometry. (NT, non-targeting siRNA).
# (§2) ELISA ELISA was conducted as described previously. Briefly, 50-150 ng of antigen was coated overnight in half-area 96-well plates at 4° C., blocked with 3% BSA at 37° C. for 1 h, and 150 ng of chimeric rabbit/human IgG1 was added, incubating for 2 h at 37° C. […] After incubating at 37° C. for 15 min-1 h (depending on intensity of controls), data were acquired using a SpectraMax M5 plate reader (Molecular Devices).
# APP = molecular target: T2, APP; experiment: ELISA on coated APP-His, 150 ng IgG1; None 0.092
# T2 construct: His-tagged; coated protein in the ELISA; also called APP-His (Acro Biosystems)
# Method: as §1, §2
# IL13RA1 = molecular target: T3, IL13RA1; experiment: ELISA on coated IL13RA1-Fc-His, 150 ng IgG1; None 0.094
# T3 construct: coated protein in the ELISA; also called IL13RA1-Fc-His (R&D Systems)
# T3 chain: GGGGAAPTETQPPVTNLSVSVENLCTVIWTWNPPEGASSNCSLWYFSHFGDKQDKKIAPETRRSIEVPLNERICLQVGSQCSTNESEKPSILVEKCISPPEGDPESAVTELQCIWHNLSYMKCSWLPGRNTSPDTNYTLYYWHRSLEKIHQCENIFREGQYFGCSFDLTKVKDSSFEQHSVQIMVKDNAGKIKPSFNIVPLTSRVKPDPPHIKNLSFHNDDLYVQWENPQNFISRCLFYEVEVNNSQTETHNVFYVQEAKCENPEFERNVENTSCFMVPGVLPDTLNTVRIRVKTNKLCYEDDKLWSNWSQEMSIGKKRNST
# Method: as §1, §2
# SLAMF7 = molecular target: T4, SLAMF7; experiment: ELISA on coated SLAMF7-StrepTag, 150 ng IgG1; None 0.047
# T4 construct: coated protein in the ELISA; also called SLAMF7-StrepTag
# T4 chain: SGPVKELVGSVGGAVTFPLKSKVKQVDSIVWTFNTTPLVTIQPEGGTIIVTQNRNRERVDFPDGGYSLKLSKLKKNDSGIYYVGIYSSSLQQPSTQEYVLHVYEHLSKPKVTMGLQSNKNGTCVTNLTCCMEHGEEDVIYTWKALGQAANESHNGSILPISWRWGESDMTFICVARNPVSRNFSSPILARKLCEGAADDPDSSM
# Method: as §1, §2
ELISA Absorbance (405 nm-570 nm) [1],ELISA Absorbance (405 nm-570 nm) (APP),ELISA Absorbance (405 nm-570 nm) (IL13RA1),ELISA Absorbance (405 nm-570 nm) (SLAMF7),Binder
0.098,0.082,0.08,0.052,B1
0.099,0.087,0.102,0.054,B2
0.087,0.089,0.085,0.047,B3
0.103,0.066,0.074,0.054,B4
0.091,0.071,0.08,0.053,B5
0.074,0.062,0.073,0.053,B6
0.081,0.071,0.077,0.049,B7
0.628,0.144,–,–,B8
0.651,0.112,0.16,0.074,B9
0.641,0.081,0.099,0.054,B10
0.718,0.225,0.163,–,B11
0.741,0.233,–,–,B12
